Measured values: IntAct's records for PubMed 21577206

B1: Transgelin-2 (Homo sapiens), P37802 (parent)
chain: MANRGPAYGLSREVQQKIEKQYDADLEQILIQWITTQCRKDVGRPQPGRENFQNWLKDGTVLCELINALYPEGQAPVKKIQASTMAFKQMEQISQFLQAAERYGINTTDIFQTVDLWEGKNMACVQRTLMNLGGLAVARDDGLFSGDPNWFPKKSKENPRNFSDNQLQEGKNVIGLQMGTNRGASQAGMTGYGMPRQIL

Variants of: B1
Details: with actb_human ACTB

effect of a mutation on the interaction	Variant
increasing interaction	S83A
decreasing interaction	S83D
decreasing interaction	S163D
increasing interaction	S163A
